Kd data for one molecule are collected here from PMC11739670 (2024).

Assay [1] deals with HLA-A*24:02 peptide-MHC class I (biotinylated pMHCI) (human | , biotin on the Avi-tag (BirA ligase)). The experiment in a line: SPR; average over HLA-A24 peptides, 25°C. A general note: In SPR one partner is held on a chip, and binding of the other changes the refractive index at the surface.
In assay [2] the target is HLA-A*01:01 peptide-MHC class I (biotinylated pMHCI) (human | , biotin on the Avi-tag (BirA ligase)). As to the kind of experiment: SPR; average over HLA-A1 peptides, 25°C.
The target of assay [3] is HLA-A*03:01 peptide-MHC class I (biotinylated pMHCI) (human | , biotin on the Avi-tag (BirA ligase)). As to the kind of experiment: SPR; average over HLA-A3 peptides, 25°C.

B1: soluble human CD8αβ-Fc heterodimer (Fc fusion)
chain 1: not shown
chain 2: LQQTPAYIKVQTNKMVMLSCEAKISLSNMRIYWLRQRQAPSSDSHHEFLALWDSAKGTIHGEEVEQEKIAVFRDASRFILNLTSVKPEDSGIYFCMIVGSPELTFGKGTQLSVVDFLPTTAQPTKKSTLKKRVCRLPRPETQKGPLCSP
Usually Kd stands for the equilibrium constant for the complex coming apart. On to B1, for which the values for the Kd in assay [1], in assay [2] and in assay [3] were 214 µM, 120 µM and 133 µM, respectively.
